Earlier results on one substance are cited in paper PMC7092810.

This data set deals with Cyclophilin A (Homo sapiens) (UniProt P62937).
Cyclophilin A (Homo sapiens), sequence (P62937 whole entry): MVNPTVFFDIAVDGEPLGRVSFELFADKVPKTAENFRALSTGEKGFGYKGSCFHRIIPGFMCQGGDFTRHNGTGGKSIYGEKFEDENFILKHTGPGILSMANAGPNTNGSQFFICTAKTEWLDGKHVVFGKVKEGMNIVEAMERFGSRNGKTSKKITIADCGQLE

HIV-1 capsid protein CA, sequence (O93182 133-363): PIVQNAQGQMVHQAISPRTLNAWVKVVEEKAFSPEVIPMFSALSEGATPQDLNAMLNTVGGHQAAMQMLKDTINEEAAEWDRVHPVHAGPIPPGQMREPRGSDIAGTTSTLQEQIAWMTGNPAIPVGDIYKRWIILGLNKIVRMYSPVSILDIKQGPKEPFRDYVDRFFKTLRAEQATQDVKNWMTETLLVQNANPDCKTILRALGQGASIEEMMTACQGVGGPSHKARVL

Usually Kd stands for the constant that tells how readily two partners part at equilibrium. Turning to “HIV-1 capsid protein CA (from UniProt O93182)”, the Kd was 16 µM.
